Patent US11660354B2, “Inhibitor-functionalized ultrasmall nanoparticles and methods thereof” (Memorial Sloan Kettering Cancer Center, priority 2016, dated 2023)
Where two headings read alike, the source gives them in different places. Square brackets hold non-standard residues; d marks the D form. Sta = CC(C)C[C@H](N)[C@@H](O)CC(=O)O; Ahx = NCCCCCC(=O)O

Assays:
[1] = format: in vitro ADME; details: serum
Experimental: PSMAi-NOTA-C′ dots (21 μmol) were radiolabeled with ^64Cu or ^177Lu (210 pmol) in NH4Ac buffer pH 5.5 at 70° C. for 20 min. The average radiolabeling yields were 98.6% and 99.3% radiochemical purities of 98% and 99.9%. Stabilities of the radiolabeled particle complexes were examined in water, saline, and serum (Table 1).
In the final step, PSMA and GRPr targeted C′ dots can be radiolabeled with ^64Cu and ^67Ga at various concentrations (˜0.3-300 nmol) in acetate buffer (pH 5.5) for 30 min and at 70° C. to obtain PSMAi-(^64Cu)NOTA-C′ dots and GRP-(^67Ga)DOTA-C′ dots. For ^89Zr labeling, as-synthesized PSMAi-DFO-C′ dot can be incubated with ^89Zr-oxalate at 37° C. for 30 min (pH 7-8). Radiolabeled PSMA-targeting C′ dots and GRPr-targeting C′ dots can be purified using PD-10 (G-25) size exclusion chromatography. For radiolabeling experiments, specific radiolabeling parameters can be determined for optimal radiolabeling efficiencies and high specific activities. Labeling can begin with the conditions shown to produce the highest specific activity. Quality control includes ITLC, HPLC, and cell-based receptor binding bioassays. Stability of radiolabeled C′ dots can be determined in H2O, PBS at 25° C. and mouse and human serum at 37° C.

LNCaP cells = test: Radiolabeled particle cell binding and internalization, LNCaP cells; format: cell-based
Experimental: (§1) Blocking studies show specific uptake.
(§2) PSMAi-(^64Cu)NOTA-C′ dots and GRP-(^177Lu)DOTA-C′ dots were examined for cell binding with LNCaP and PC3 cells (FIGS. 11A-11C). Cells were incubated with 100,000 CPM of PD10 purified radiolabeled C′ dots. PMPA and bombesin were used for blocking PSMAi and GRP radiolabeled C′ dots. After 3 PBS washes, the membrane surface-bound fraction was removed with 40 mM NaOAc (pH=4.5, 0.9% NaCl, 0.2% BSA), after which the cells were dissolved in NaOH to obtain internalized counts.

PC3 cells = test: Radiolabeled particle cell binding and internalization, PC3 cells; format: cell-based
Experimental: as §1, §2

TRAMP-C2 cell line = test: Binding of radiolabeled C′ dots to the TRAMP-C2 cell line; format: cell-based, mouse
Excerpt: The advantages of the TRAMP model are the development of disease that mirrors human pathology in an immune competent mouse, coupled with the formation of LN and bone metastases. Disadvantages are that the biology/physiology of mouse prostate is not the same as the human organ. For example, the mouse prostate is not a single organ, as in human, but has 4 lobes, different from the single organ human prostate. The advantage of the TRAMP model is the ability to image metastatic disease and nodal metastases with PSMA- and GRPr-targeting C′ dots using PET and fluorescence-based multiplexing. Binding studies of PSMAi-(^67Ga)NOTA-C′ dots and GRP-(^177Lu)DOTA-C′ dots to the TRAMP-C2 cell line were examined (FIG. 17). The TRAMP-C2 cell line was derived from TRAMP prostate tumors. Both the PSMAi-(^67Ga)NOTA-C′ dots and GRP-(^177Lu)DOTA-C′ dots bound the TRAMP-C2 cell line. […] This model enables proof-of-concept studies to be conducted for multiplexed detection of nodal metastases using a cocktail of PSMAi-PEG-Cy5.5-C′ dots and GRP-PEG-CW800-C′ dots.

[2] = test system: PC lesion and metastatic LNs; test: Clinical PET with ^68Ga-RM2 and ^68Ga-PSMA-11 in prostate cancer patients; format: in vivo; details: patient with biochemical recurrence of PC
Excerpt: FIGS. 20A-20B show a patient with biochemical recurrence of PC imaged with PSMA ligand ^68Ga-PSMA-11 and GRPr ligand ^68Ga-RM2. ^68Ga-PSMA-11 scan acquired 4 weeks after the ^68Ga-RM2 scan. Retroperitoneal LN metastases are better visualized on the GRPr scan than on the PSMA scan.

Row | normal organ uptake [2] | Compound | percent radiolabeled C′ dot stability ([1]; human, 1 h) | percent radiolabeled C′ dot stability ([1]; human, 4 h) | percent radiolabeled C′ dot stability ([1]; human, 24 h) | percent radiolabeled C′ dot stability ([1]; mouse, 1 h) | percent radiolabeled C′ dot stability ([1]; mouse, 4 h) | percent radiolabeled C′ dot stability ([1]; mouse, 24 h) | cell binding, uptake and internalization (LNCaP cells) | cell binding, uptake and internalization (PC3 cells) | binding in the presence of bombesin (PC3 cells; blocking with bombesin) | binding to TRAMP-C2 cell line with RM2 peptide (TRAMP-C2 cell line; addition of an excess of GRPr targeting RM2 peptide) | binding to TRAMP-C2 cell line (TRAMP-C2 cell line; alone)
1 |  | GRP-(^177Lu)DOTA-C′ dots: GRP antagonist-DOTA peptide-functionalized C′ dots radiolabeled with ^177Lu ({Ac-Cys-Ahx-Ahx-K(DOTA)-4‑amino‑1‑carboxymethyl‑piperidine}-HQWAVGH[Sta]L-NH2; also: Cys thiol bound to maleimide-PEG-silane on silica nanoparticle, DOTA labelled with 177Lu) | 99.9% | 99.9% | 99.8% | 99.9% | 99.8% | 98.6% | low levels of binding | bound PC3 cells, but were not efficiently internalized | blocked | significantly reduced | bound
2 | very high RES and renal uptake | O=C(O)CCc1ccc(O)c(CN(CCN(CC(=O)O)Cc2cc(CCC(=O)NCCCCCC(=O)NCCCC[C@H](NC(=O)N[C@@H](CCC(=O)O)C(=O)O)C(=O)O)ccc2O)CC(=O)O)c1 (68Ga complex, metal not drawn) [PSMA-11] |  |  |  |  |  |  |  |  |  |  | 
